The source of these data is US20230167426A1 (UNIVERSITY OF MASSACHUSETTS, published 2023).

Test [1] addresses T1, 6×His-tagged NmeCas9 (Neisseria meningitidis Cas9) (Neisseria meningitidis, UniProt C9X1G5 1-1082).
T1 construct: also called N. meningitidis Cas9; 6×His-NmeCas9; not shown: N-terminal 6xHis-TEV tag of vector pMCSG7
T1 sequence: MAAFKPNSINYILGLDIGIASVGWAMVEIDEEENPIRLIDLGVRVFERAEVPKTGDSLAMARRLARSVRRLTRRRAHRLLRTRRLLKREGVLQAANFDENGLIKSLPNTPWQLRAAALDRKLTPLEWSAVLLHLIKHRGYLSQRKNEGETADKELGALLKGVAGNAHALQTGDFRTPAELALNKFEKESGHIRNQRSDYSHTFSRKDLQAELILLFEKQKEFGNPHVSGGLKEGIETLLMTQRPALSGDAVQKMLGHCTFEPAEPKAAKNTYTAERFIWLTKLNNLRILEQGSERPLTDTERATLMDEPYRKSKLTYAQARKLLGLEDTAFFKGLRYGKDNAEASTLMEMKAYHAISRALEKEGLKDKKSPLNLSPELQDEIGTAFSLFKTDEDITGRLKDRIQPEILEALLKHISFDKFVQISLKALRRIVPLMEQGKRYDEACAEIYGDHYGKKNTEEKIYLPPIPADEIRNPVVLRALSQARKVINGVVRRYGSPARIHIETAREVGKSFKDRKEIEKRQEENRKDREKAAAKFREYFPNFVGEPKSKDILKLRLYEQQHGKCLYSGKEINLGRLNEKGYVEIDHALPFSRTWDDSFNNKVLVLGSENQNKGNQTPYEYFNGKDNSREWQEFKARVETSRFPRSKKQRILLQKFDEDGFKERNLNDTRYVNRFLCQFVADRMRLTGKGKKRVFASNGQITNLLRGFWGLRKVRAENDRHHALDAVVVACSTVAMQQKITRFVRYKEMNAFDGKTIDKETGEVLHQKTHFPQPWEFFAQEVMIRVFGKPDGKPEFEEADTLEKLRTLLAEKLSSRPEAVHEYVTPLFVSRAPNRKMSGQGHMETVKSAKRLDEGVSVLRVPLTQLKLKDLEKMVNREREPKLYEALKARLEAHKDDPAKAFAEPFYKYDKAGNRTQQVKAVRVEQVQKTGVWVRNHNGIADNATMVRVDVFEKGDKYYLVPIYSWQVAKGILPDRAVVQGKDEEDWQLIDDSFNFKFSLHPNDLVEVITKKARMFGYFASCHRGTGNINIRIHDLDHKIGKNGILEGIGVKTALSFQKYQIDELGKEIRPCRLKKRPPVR
Description: nickel affinity pulldown with 6×His-NmeCas9:sgRNA, SDS-PAGE/Coomassie.

For test [2], the target named is T2, 6×His-MBP-tagged AnaCas9 (Cas9 from Actinomyces naeslundii) (Actinomyces naeslundii, UniProt J3F2B0 1-1101).
T2 construct: not shown: 6×His-MBP tag
T2 sequence: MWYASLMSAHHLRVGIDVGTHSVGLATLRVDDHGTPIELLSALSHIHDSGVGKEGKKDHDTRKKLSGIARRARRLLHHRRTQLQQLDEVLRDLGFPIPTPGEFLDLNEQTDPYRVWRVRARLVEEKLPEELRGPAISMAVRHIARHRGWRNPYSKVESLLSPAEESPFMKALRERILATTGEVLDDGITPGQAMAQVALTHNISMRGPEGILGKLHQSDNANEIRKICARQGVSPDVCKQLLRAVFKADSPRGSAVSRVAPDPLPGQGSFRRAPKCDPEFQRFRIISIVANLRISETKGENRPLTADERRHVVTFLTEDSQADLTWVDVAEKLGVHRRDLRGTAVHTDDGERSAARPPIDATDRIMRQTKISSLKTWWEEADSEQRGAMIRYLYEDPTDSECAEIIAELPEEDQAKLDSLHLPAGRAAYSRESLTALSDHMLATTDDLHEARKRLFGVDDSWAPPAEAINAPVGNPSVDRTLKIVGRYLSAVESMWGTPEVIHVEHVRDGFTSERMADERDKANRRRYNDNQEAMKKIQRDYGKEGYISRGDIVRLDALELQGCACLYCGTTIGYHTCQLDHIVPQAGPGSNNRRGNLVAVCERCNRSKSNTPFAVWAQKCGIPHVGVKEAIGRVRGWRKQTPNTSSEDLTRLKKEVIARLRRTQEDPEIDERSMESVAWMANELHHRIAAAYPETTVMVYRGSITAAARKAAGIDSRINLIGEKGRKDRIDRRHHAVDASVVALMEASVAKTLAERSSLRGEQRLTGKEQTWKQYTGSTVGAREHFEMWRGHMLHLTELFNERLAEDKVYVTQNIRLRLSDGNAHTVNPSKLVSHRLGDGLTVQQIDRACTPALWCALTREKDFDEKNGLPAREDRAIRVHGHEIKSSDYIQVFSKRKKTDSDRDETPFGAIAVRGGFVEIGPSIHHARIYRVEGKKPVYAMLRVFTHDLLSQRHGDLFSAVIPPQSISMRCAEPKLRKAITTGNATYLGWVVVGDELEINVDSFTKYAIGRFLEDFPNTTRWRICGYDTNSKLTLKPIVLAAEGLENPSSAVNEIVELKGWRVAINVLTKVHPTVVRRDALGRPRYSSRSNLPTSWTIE
The test is described as follows: nickel affinity pulldown with tagged AnaCas9, SDS-PAGE/Coomassie.

Test [3] deals with T1, 6×His-tagged NmeCas9 (Neisseria …). The test is described as follows: cell-based or functional assay.

B1: AcrE2 (type I-E anti-CRISPR from Pseudomonas phage JBD88a) (other)
chain: MANTYLIDPRKNNDNSGERFTVDAVDITAAAKSAAQQILGEEFEGLVYRETGESNGSGMFQAYHHLHGTNRTETTVGYPFHVMEL
notes: also called Acr88a-32; Acr88-32
Consider B1, for which the binding result in test [1] was “no binding”.

B2: AcrIIC1Nme (Neisseria meningitidis Acr #1) (other)
chain: MANKTYKIGKNAGYDGCGLCLAAISENEAIKVKYLRDICPDYDGDDKAEDWLRWGTDSRVKAAALEMEQYAYTSVGMASCWEFVEL
notes: also called Acr1Nm
Take B2: the binding result in test [2] is listed as “no binding”. The “inhibition of in vitro DNA cleavage by NmeCas9, anti-CRISPR at 1:1 molar ratio” value in test [3] was about 50%.

B3: FLAG-AcrIIC3Nme (AcrIIC3Nme with an N-terminal FLAG tag) (other)
chain: DYKDDDDKMAFKRAIIFTSFNGFEKVSRTEKRRLAKIINARVSIIDEYLRAKDTNASLDGQYRAFLFNDESPAMTEFLAKLKAFAESCTGISIDAWEIEESEYVRLPVERRDFLAAANGKEIFKI
notes: also called 6xHis-TEV-FLAG-AcrIIC3Nme (before TEV cleavage)
Turning to B3, in test [2], the binding result is “no binding”. Besides, the “inhibition of in vitro DNA cleavage by NmeCas9, anti-CRISPR at 1:1 molar ratio” value in test [3] is about 50%.
